Test results published in patent US20200308301A1 (Novartis, published 2020).
Numbering of substitutions follows the chain as printed. Each block holds one binder with its values, some of them ahead of it.

Assays:
NOV1401 [1] = biological target: T1, NOV1401; experiment: Solution equilibrium titration (SET), 1:1 fit, average
T1 construct: It was amine-coupled to the chip in SPR, and used soluble and biotinylated in SET; also called anti-FXI/FXIa antibody NOV1401; anti-Factor XI/FXIa antibody NOV1401
Method: (§1) 14 serial (2×) dilutions of NOV1401 were prepared in sample buffer (PBS pH 7.4 containing 0.5% (w/v) BSA and 0.02% Tween 20) and a constant concentration of the anti-NOV1401 Fab or IgG was added to each NOV1401 concentration ranging from 40 pM to 240 pM. Optimal constant anti-NOV1401 Fab or IgG concentrations and optimal starting concentrations for NOV1401 dilution series were determined in pilot experiments.
(§2) After incubation and three times washing with PBST (PBS containing 0.05% Tween 20) 30 μl/well of the NOV1401/anti-NOV1401 Fab or IgG preparation was transferred from the polypropylene MTP to the NOV1401-coated SA plate and incubated for 30 min at RT on a MTP shaker. After three additional wash steps, 30 μl of 0.5 μg/ml detection antibody (Goat anti-human Kappa LC-HRP, BETHYL # A80-115P) diluted in sample buffer was added to each well and incubated for 1 h at RT with shaking. After washing the plate again three times, 30 μl of detection reagent (LumiGLO Peroxidase Chemiluminescent Substrate, KPL #54-61-01) was added to each well. Electrochemiluminescence (ECL) signals were generated and detected immediately with a luminescence imager (SpectraMax M5, Molecular Devices, LLC).
Average ECL-signals were calculated from duplicate measurements within each assay. Data were baseline adjusted by subtracting the lowest value from all data points and plotted against the corresponding antigen concentration. KD values were determined by fitting the plot with the following non-linear curve fitting model for 1:1 binding according to Haenel et al 2005: […]

NOV1401 [2] = biological target: T1, NOV1401; experiment: SPR (ProteOn XPR36), NOV1401 immobilized, Fab as analyte, 1:1 Langmuir fit, average
Method: SPR binding experiments were performed on a ProteOn XPR36 instrument (Bio-Rad Laboratories, Inc.) in PBS/T buffer (50 mM phosphate, 150 mM NaCl, pH 7.4, 0.005% v/v Tween-20) at 25° C. NOV1401 (‘Ligand’) was immobilized onto an activated ProteOn GLC sensor chip (Bio-Rad Laboratories, Inc.) using standard amine coupling procedures as described by the manufacturer. Briefly, NOV1401 was injected at a concentration of 10 μg/ml in 20 mM sodium acetate, pH 5.0 and at a flow rate of 30 μl/min for 10 min. Unreacted groups were blocked by injecting 1 M ethanolamine.
For kinetic studies anti-NOV1401 Fabs (‘Analytes’) were diluted in PBS/T buffer to generate a dilution series with concentrations ranging from 0.125-4 nM. Fabs were injected onto surfaces with immobilized NOV1401 at a flow rate of 100 μL/min and sensorgrams were recorded for association and dissociation times of 220 s and 1800 s, respectively. Blank surfaces were used for background corrections. There was no need to regenerate surfaces since the ProteOn protein interaction array system allows to run up to six binding experiments on an identical surface in parallel.
Data processing and analysis including kon, koff, and KD determination were performed with the ProteOn Manager™ software version 3.1.0.6.

NOV1401 [3] = biological target: T1, NOV1401; experiment: cell-based or functional assay
NOV1401 [4] = biological target: T1, NOV1401; experiment: cell-based or functional assay; remark: listed apart in the source
NOV1401 [5] = biological target: T1, NOV1401; experiment: SET (solution equilibrium titration): constant anti-NOV1401 Fab with a NOV1401 dilution series, free Fab captured on a biotinylated-NOV1401 streptavidin plate, luminescence (RLU), 1:1 fit
Method: as §1
as §2, with “After washing the plate again three times, 30 μl of detection reagent (LumiGLO Peroxidase Chemiluminescent Substrate, KPL #54-61-01) was added to each well.” left out
(§3) Average ECL-signals were calculated from duplicate measurements within each assay. […] KD values were determined by fitting the plot with the following non-linear curve fitting model for 1:1 binding according to Haenel et al 2005: […]
Target sequence in this assay (VL, as listed by the source): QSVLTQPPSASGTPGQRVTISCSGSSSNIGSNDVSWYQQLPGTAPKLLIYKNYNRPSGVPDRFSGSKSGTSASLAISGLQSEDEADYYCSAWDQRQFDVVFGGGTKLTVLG

NOV1401 [6] = biological target: T1, NOV1401; experiment: Solution equilibrium titration (SET), IgG, 1:1 fit, average
Method: as §1
as §2, with “After washing the plate again three times, 30 μl of detection reagent (LumiGLO Peroxidase Chemiluminescent Substrate, KPL #54-61-01) was added to each well.” left out
as §3
Target sequence in this assay (VL, as listed by the source): as above

B1: IDT4 (Fab, V domains shown)
VH: QVQLVESGGGLVKPGGSLRLSCAASGFTFSSAAVHWVRQAPGKGLEWVGRIKSKASGGTTDYAAPVKGRFTISRDDSKNTLYLQMNSLKTEDTAVYYCARDSPSISSYSIPYFSGMDVWGQGTLVTVSS
VL: DIQMTQSPSSLSASVGDRVTITCRASQGIRAWLNWYQQKPGKAPKLLIYAASSLQSGVPSRFSGSGSGTDFTLTISSLQPEDFATYYCHQYITHPPTFGQGTKVEIKR
notes: Fab; also called anti-NOV1401 Fab IDT4
Kd (NOV1401 [1]): 970 pM
Kd (NOV1401 [2]): 310 pM
TGA percentage reversal, NOV1401/anti NOV1401 ratio 1/1 (n/n) (NOV1401 [3]): 33%
TGA percentage reversal, NOV1401/anti NOV1401 ratio 1/3 (n/n) (NOV1401 [3]): 53%
TGA percentage reversal, NOV1401/anti NOV1401 ratio 1/10 (n/n) (NOV1401 [3]): 60%
aPTT percentage reversal, NOV1401/anti NOV1401 ratio 1/1 (n/n) (NOV1401 [4]): 10%
aPTT percentage reversal, NOV1401/anti NOV1401 ratio 1/3 (n/n) (NOV1401 [4]): 27%
aPTT percentage reversal, NOV1401/anti NOV1401 ratio 1/10 (n/n) (NOV1401 [4]): 39%

B2: IDT5 (Fab, V domains shown)
VH: B1 VH with S56D, G57A
VL: B1 VL
notes: Fab; also called anti-NOV1401 Fab IDT5
Kd (NOV1401 [1]): 140 pM
Kd (NOV1401 [2]): 350 pM
TGA percentage reversal, NOV1401/anti NOV1401 ratio 1/1 (n/n) (NOV1401 [3]): 55%
TGA percentage reversal, NOV1401/anti NOV1401 ratio 1/3 (n/n) (NOV1401 [3]): 56%
TGA percentage reversal, NOV1401/anti NOV1401 ratio 1/10 (n/n) (NOV1401 [3]): 72%
aPTT percentage reversal, NOV1401/anti NOV1401 ratio 1/1 (n/n) (NOV1401 [4]): 17%
aPTT percentage reversal, NOV1401/anti NOV1401 ratio 1/3 (n/n) (NOV1401 [4]): 42%
aPTT percentage reversal, NOV1401/anti NOV1401 ratio 1/10 (n/n) (NOV1401 [4]): 56%

B4: IDT8 (Fab, V domains shown)
VH: QVQLVESGGGLVKPGGSLRLSCAASGFTFSSNAMHWVRQAPGKGLEWVGRIKSKTSGGTTDYAAPVKGRFTISRDDSKNTLYLQMNSLKTEDTAVYYCARDHYYYPFAYWGQGTLVTVSS
VL: B1 VL with G28S, A31Y, W32N, N34A, T93A, H94K, P96I
notes: Fab; also called anti-NOV1401 Fab IDT8
Kd (NOV1401 [5]): 960 pM
Kd (NOV1401 [1]): 160 pM
Kd (NOV1401 [2]): 2150 pM
TGA percentage reversal, NOV1401/anti NOV1401 ratio 1/1 (n/n) (NOV1401 [3]): 41%
TGA percentage reversal, NOV1401/anti NOV1401 ratio 1/3 (n/n) (NOV1401 [3]): 56%
TGA percentage reversal, NOV1401/anti NOV1401 ratio 1/10 (n/n) (NOV1401 [3]): 69%
aPTT percentage reversal, NOV1401/anti NOV1401 ratio 1/1 (n/n) (NOV1401 [4]): 8%
aPTT percentage reversal, NOV1401/anti NOV1401 ratio 1/3 (n/n) (NOV1401 [4]): 25%
aPTT percentage reversal, NOV1401/anti NOV1401 ratio 1/10 (n/n) (NOV1401 [4]): 42%

More lines, now with the values ahead:

Kd (NOV1401 [1]): 1190 pM
Kd (NOV1401 [2]): 5970 pM
TGA percentage reversal, NOV1401/anti NOV1401 ratio 1/1 (n/n) (NOV1401 [3]): 37%
TGA percentage reversal, NOV1401/anti NOV1401 ratio 1/3 (n/n) (NOV1401 [3]): 45%
TGA percentage reversal, NOV1401/anti NOV1401 ratio 1/10 (n/n) (NOV1401 [3]): 57%
aPTT percentage reversal, NOV1401/anti NOV1401 ratio 1/1 (n/n) (NOV1401 [4]): 12%
aPTT percentage reversal, NOV1401/anti NOV1401 ratio 1/3 (n/n) (NOV1401 [4]): 25%
aPTT percentage reversal, NOV1401/anti NOV1401 ratio 1/10 (n/n) (NOV1401 [4]): 40%
B3: IDT10 (Fab, V domains shown)
VH: QVQLVQSGAEVKKPGASVKVSCKASGYTFTNYYVHWVRQAPGQGLEWMGWINPYSGNTNYAQKFQGRVTMTRDTSISTAYMELSRLRSEDTAVYYCARGASSIRMSYYLDVWGQGTLVTVSS
VL: B1 VL with G28S, R30S, A31N, W32Y, S53N, H89F, I92T, T93H, H94S, P96A
notes: Fab; also called anti-NOV1401 Fab IDT10

Kd (NOV1401 [6]): 0.7 pM
TGA percentage reversal, NOV1401/anti NOV1401 ratio 1/1 (n/n) (NOV1401 [3]): 50%
TGA percentage reversal, NOV1401/anti NOV1401 ratio 1/3 (n/n) (NOV1401 [3]): 59%
TGA percentage reversal, NOV1401/anti NOV1401 ratio 1/10 (n/n) (NOV1401 [3]): 67%
aPTT percentage reversal, NOV1401/anti NOV1401 ratio 1/1 (n/n) (NOV1401 [4]): 19%
aPTT percentage reversal, NOV1401/anti NOV1401 ratio 1/3 (n/n) (NOV1401 [4]): 55%
aPTT percentage reversal, NOV1401/anti NOV1401 ratio 1/10 (n/n) (NOV1401 [4]): 57%
B5: IDT11 (antibody, human IgG1, kappa, V domains shown)
VH: QVQLLESGGGLVQPGGSLRLSCAASGFTFSDYAMSWVRQAPGKGLEWVSVIDYSSSNTYYADSVKGRFTISRDNSKNTLYLQMNSLRAEDTAVYYCAREGYSYRSIRFDYWGQGTLVTVSS
VL: DIQMTQSPSSLSASVGDRVTITCRASQSISSNLNWYQQKPGKAPKLLIYAASNLQSGVPSRFSGSGSGTDFTLTISSLQPEDFATYYCLQFDHTPFTFGQGTKVEIKR
notes: also called anti-NOV1401 IgG IDT11; full length IgG format for IDT1
